The labels stand for the following.
B1: PRO2907 (scFv)
scFv: DIQMTQSPASLSASVGDRVTITCQASQSIGTYLAWYQQKPGKPPKLLIYRAFILASGVPSRFSGSGSGTDFTLTISSLQPEDFATYYCQSNFYSDSTTIGPNAFGTGTKVTVLGGGGGSGGGGSGGGGSGGGGSEVQLVESGGGRVQPGGSLRLSCAASGFSFNSDYWIYWVRQAPGKGLEWIASIYGGSSGNTQYASWAQGRFTISRDNSKNTVYLQMNSLRAEDTAVYFCARGYVDYGGATDLWGQGTLVTVSS
B2: PRO2984 (scFv)
scFv: B1 scFv with R145S, V229T, L251T
B3: PRO2903 (scFv)
scFv: B1 scFv with V229T, L251Q
B4: PRO2926 (scFv)
scFv: B1 scFv with R145S, V229T, L251Q
B5: PRO2909 (scFv)
scFv: B1 scFv with R145L, L251Q
B6: PRO2905 (scFv)
scFv: B1 scFv with L251Q
B7: PRO2906 (scFv)
scFv: B1 scFv with R145L, V229T, L251Q
B8: PRO2922 (scFv)
scFv: DIQMTQSPSSLSASVGDRVTITCQASESIYSSLAWYQQKPGKAPKLLIYLASTLASGVPSRFSGSGSGTDFTLTISSLQPEDFATYYCQSTDYTTSTHRNSFGTGTKVTVLGGGGGSGGGGSGGGGSGGGGSEVQLVESGGGRVQPGGSLRLSCAASGFSFSTTYYMCWVRQAPGKGLEWIGCTNTASSVRTYYATWAKGRFTISRDNSKNTVYLQMNSLRAEDTAVYYCARDMGFADYALNLWGQGTLVTVSS
B9: PRO2924 (scFv)
scFv: B8 scFv with R143L, L249Q
B10: PRO2925 (scFv)
scFv: B8 scFv with R143S, V227T, L249Q
B11: PRO2919 (scFv)
scFv: B8 scFv with V227T
B12: PRO2921 (scFv)
scFv: B8 scFv with R143L, V227T, L249Q
B13: PRO2920 (scFv)
scFv: B8 scFv with L249Q
B14: PRO2990 (scFv)
scFv: B8 scFv with R143S, V227T, L249T
B15: PRO2918 (scFv)
scFv: B8 scFv with V227T, L249Q
B16: PRO2741 (protein)
chain 1: DIQMTQSPSSLSASVGDRVTITCQASESIYSSLAWYQQKPGKAPKLLIYLASTLASGVPSRFSGSGSGTDFTLTISSLQPEDFATYYCQSTDYTTSTHRNSFGTGTKVTVLGGGGGSGGGGSGGGGSGGGGSEVQLVESGGGRVQPGGSLRLSCAASGFSFSTTYYMCWVRQAPGKGLEWIGCTNTASSVRTYYATWAKGRFTISRDNSKNTVYLQMNSLRAEDTATYYCARDMGFADYALNLWGQGTQVTVSSGGGGSGGGGSEVQLVESGGGRVQPGGSLRLSCAASGFSLSSYDMSWVRQAPGKGLAWIGASYASGPTYYASWAKGRFTISRDNSKNTVYLQMNSLRAEDTATYFCARGGWTGTSHSNIWGQGTQVTVSSGGGSGGGSGGGSGEVQLVESGGGRVQPGGSLRLSCAASGFSLSSYAMNWVRQAPGKCLEWIGHINAGDIAYYATWAKGRFTISRDNSKNTVYLQMNSLRAEDTATYFCARGAGGFSTGPFKLWGQGTQVTVSS
chain 2: DIQMTQSPSSLSASVGDRVTITCQASESIYSSLAWYQQKPGKAPKLLIYLASTLASGVPSRFSGSGSGTDFTLTISSLQPEDFATYYCQSTDYTTSTHRNSFGTGTKVTVLGGGGGSGGGGSGGGGSGGGGSEVQLVESGGGRVQPGGSLRLSCAASGFSFSTTYYMCWVRQAPGKGLEWIGCTNTASSVRTYYATWAKGRFTISRDNSKNTVYLQMNSLRAEDTATYYCARDMGFADYALNLWGQGTQVTVSSGGGGSGGGGSAFELTQSPSSLSASVGDRVTITCQASESINSRLAWYQQKPGQPPKLLIYDASDLTSGVPSRFSGSGSGTDFTLTISSLQPEDFATYYCQGYGGSSTTTFGCGTKLTVLGGGSGGSDIQMTQSPSSLSASVGDRVTITCQSSQSVFSNNYLAWFQQKPGQSPKRLIYSASTLASGVPSRFSGSGSGTDFTLTISSLQPEDFATYYCLGSYACSSADCYVFGTGTKVTVLG

These results are taken from US20240084039A1.

Positions count from the first letter of the chain named.

The target in the experiment is pre-existing anti-drug antibodies (ADA) present in human sera. The experiment can be described thus: ELISA pre-existing ADA binding assay, confirmatory setup, test molecule coated, 20 human sera. A general note: ELISA stands for enzyme-linked immunosorbent assay.
On to B1, for which the % positives of total tested serum samples was found to be 15% and the No of positive serum samples above 30% CCP (serum samples) was determined as 3.

Consider B2, for which the % positives of total tested serum samples was determined as 25% and the No of positive serum samples above 30% CCP (serum samples) is 5.

Take B3: the % positives of total tested serum samples is 30% and the No of positive serum samples above 30% CCP (serum samples) was found to be 6.

Take B4: the % positives of total tested serum samples was found to be 40% and the No of positive serum samples above 30% CCP (serum samples) is 8.

Take B5: the % positives of total tested serum samples amounted to 50% and the No of positive serum samples above 30% CCP (serum samples) turned out to be 10.

B6: the % positives of total tested serum samples came out at 20% and the No of positive serum samples above 30% CCP (serum samples) stood at 7.

Turning to B7, the % positives of total tested serum samples is 95% and the No of positive serum samples above 30% CCP (serum samples) was determined as 19.

Molecule B8 displayed a % positives of total tested serum samples of 10% and a No of positive serum samples above 30% CCP (serum samples) of 2.

The molecule B9 displayed a % positives of total tested serum samples of 75% and a No of positive serum samples above 30% CCP (serum samples) of 15.

In the case of B10, the % positives of total tested serum samples stood at 25% and the No of positive serum samples above 30% CCP (serum samples) was 5.

As for B11, the % positives of total tested serum samples came out at 5% and the No of positive serum samples above 30% CCP (serum samples) stood at 1.

Molecule B12 registered a % positives of total tested serum samples of 55% and a No of positive serum samples above 30% CCP (serum samples) of 11.

B13: the % positives of total tested serum samples is 10% and the No of positive serum samples above 30% CCP (serum samples) was 2.

As for B14, the % positives of total tested serum samples stood at 25% and the No of positive serum samples above 30% CCP (serum samples) was 5.

In turn, B15 gave a % positives of total tested serum samples of 25% and a No of positive serum samples above 30% CCP (serum samples) of 5.

The molecule B16 gave a % positives of total tested serum samples of 15% and a No of positive serum samples above 30% CCP (serum samples) of 3.
